Assay [1] addresses Nrl1 (full length), BACTH fusion (S. pombe) (UniProt O42975). As to the kind of experiment: two-hybrid; bacterial two-hybrid (BACTH) in E. coli BTH101; Nrl1 or its truncations in pUT18C, RNA-processing factors in pKT25; β-galactosidase activity assay at 28 °C in Miller units; eight biological replicates.
For assay [2], the target named is Nrl1(C-term), C-terminal region (493–972 aa), BACTH fusion (S. pombe) (UniProt O42975). The description is as above.
For assay [3], the target named is Nrl1 (full length), BACTH fusion (S. pombe) (UniProt O42975). As to the kind of experiment: two-hybrid; bacterial two-hybrid (BACTH) in E. coli BTH101; full-length ORFs in pUT18C and pKT25, both combinations; X-gal/IPTG plates and β-galactosidase activity assay at 28 °C in Miller units; eight biological replicates.
Assay [4] has as its target Nrl1(N-term + NRDE-2), N-terminus with NRDE2 domain (1–492 aa), BACTH fusion (S. pombe) (UniProt O42975). The experiment in a line: two-hybrid; bacterial two-hybrid (BACTH) in E. coli BTH101; Nrl1 or its truncations in pUT18C, RNA-processing factors in pKT25; β-galactosidase activity assay at 28 °C in Miller units; eight biological replicates.
The target of assay [5] is Nrl1(N-term), N-terminal region (1–159 aa), BACTH fusion (S. pombe) (UniProt O42975). Described as above.

This passage reports β-galactosidase activity (Miller units) results from PMC8268110.

Values joined by “and” are separate entries in the source; they are usually repeats but may differ in a detail not shown here. Identical values can stand only once.

Take Ctr1, BACTH fusion (natural protein): the β-galactosidase activity (Miller units) was 1080 Miller units in assay [1]; 708 Miller units in assay [2]; 977 Miller units and 1090 Miller units in assay [3].

Turning to Mtl1, BACTH fusion (natural protein), the β-galactosidase activity (Miller units) was 1460 Miller units in assay [1]; 1560 Miller units in assay [4]; 1510 Miller units in assay [5]; 1440 Miller units and 1450 Miller units in assay [3].

Regarding Ntr2, BACTH fusion (natural protein), the β-galactosidase activity (Miller units) in assay [1] was 583 Miller units; in assay [2], 495 Miller units; in assay [3], 739 Miller units and 467 Miller units.
